{"source": "patent US20200040085A1", "about": "(Chugai, published 2020)", "binders": {"B1": {"name": "DQN0100 (antibody, human IgG1, kappa, V domains shown)", "VH": "QQQLEESGGGLVKPGASLTLTCKGSGFSFTSGYWICWVRQAPGKGLEWIGCIYTGSSGSTYYASWAKGRFTISRSSTTVTLQMTSLTVADTATYFCAGDPSGASSGWDNLWGPGTLVTVSS", "VL": "AFELTQTPSSVEAAVGGTVTIKCQASQTIVSWLAWYQQKPGQRPKLLILYASNLASGVSSRFRGSGSGTDYTLTISDLECDDAATYYCQSYYFSTSSPDMYAFGGGTKVEIKR", "notes": "Rabbit variable regions with F1332m and hkOMC constant regions; also called DQN0100aa"}, "B2": {"name": "DQN0016 (antibody, human IgG1, kappa, V domains shown)", "VH": "QSLEESGGDLVKPGASLTLTCTASGFSFSSRYWMCWVRQAPGKGLEWIACIDAGSSGITYYASWANGRFTISKTSSTTVTLQMTSLTAADTATYFCARDAWSTTDGWNTFNLWGPGTLVTVSS", "VL": "DVVMTQTPASVSAAVGGTVTIKCQASQSIGSNLNWYQQKPGQSPKLLIYSASTLASGVPSRFKGSGSGTEYTLTISNLECADAATYYCQSYYYTGSSAVNNFGGGTKVEIKR", "notes": "Rabbit B-cell derived variable regions recombined with F1332m heavy and hkOMC light constant regions; expressed in FreeStyle 293-F cells; also called DQN0016cc"}, "B3": {"name": "DQN0157 (antibody, human IgG1, kappa, V domains shown)", "VH": "QSLEESGGDLVKPGASLTLTCTASGFSFSSSYYMCWVRQAPGKGLEWIACIYTGSSGSTYYPSWAKGRFTISKTSSTTVTLQMTSLTAADTATYFCARVRAGSGYYYFNLWGPGTLVTVSS", "VL": "DIVMTQTPSSVSAAVGGTVTIKCQASQTIYSGLAWYQQKPGQPPKLLIYDASDLASGVPSRFSGSGSGTEFTLAISGVQCDDAATYYCHGDYYGGSGTFFWTFGGGTKVEIKR", "notes": "Rabbit variable regions with F1332m and hkOMC constant regions; also called DQN0157cc"}, "B4": {"name": "DQN0139 (antibody, human IgG1, kappa, V domains shown)", "VH": "QSLEESGGRLVTPGTALTLTCTVSGFSLSSYAMGWVRQAPGKGLEYIGWTSPGDSAYYASWTKGRFTISRTSTTVELKITSPTTEDTATYFCARDAAYIGHWAFNLWGPGTLVTVSS", "VL": "DVVMTQTPASVSAPVGGTVTINCQASESIYSNLAWYQQKPGQPPKLLIYGASTLESGVPSRVKGSGYGTQFTLTISDLECADAATYYCQQYYGSSSTAFTFGGGTKVEIKR", "notes": "also called DQN0139bb"}, "B5": {"name": "DQN0089 (antibody, human IgG1, kappa, V domains shown)", "VH": "QEQVVEYGGDLVQPEGSLTLTCKASGLDFSSTYYMCWVRQAPGKGLEWIGCIYGGSSDSTYYASWAKGRFTISKTSPTTVTLQMTSLTAADTATHFCATYDYGAVGYDLWGPGTLVTVSS", "VL": "EVVVTQTPASVEVAVGGTVTIKCQASQNISPYLSWYQQKPGQPPKLLIYKASTLASGVSSRFKGSGSGTQFTLTISDLECADAATYYCQNNYGVSINYGHTFGGGTKVEIKR"}, "B6": {"name": "DQN0177 (antibody, human IgG1, kappa, V domains shown)", "VH": "QSVEESGGRLVTPGTPLTLTCTVSGFSLSSYAMSWVRQAPGKGLEWIGVISYSGRTYDASWAKGRFTISKTSTTVDLKITSPTTEDTATYFCARVGDSYGYAYATVIFTYHFNLWGPGTLVTVSS", "VL": "DPVLTQTPSSASEPVGGTVTIKCQASESISSSLAWYQQKPGQRPKLLIYDASKLASGVPSRFKGSGSGTEFTLTISGVQCDDAATYYCQHGLSSGSTNRCAFGGGTKVEIKR", "notes": "also called DQN0177aa"}, "B7": {"name": "DQN0092 (antibody, human IgG1, kappa, V domains shown)", "VH": "QSVEESGGRLVTPGTPLTLTCTVSGFSLSSYYISWVRQAPGKGLEWIGIIYTDGVTDYPNWAKGRFTISKTSTTVDLKITSPTTEDTATYFCARDAASVYGCGYFDLWGPGTLVTVSS", "VL": "TFKLTQTPASVEAAVGGTVTIKCQASESNGNALAWYQQKPGQPPKLLIYRAFTLASGVPSRLKGSGSGTQFALTISDLECADAATYYCQTYYGSNTDFNAFGGGTKVEIKR", "notes": "Rabbit variable regions with F1332m and hkOMC constant regions; also called DQN0092hh"}}, "key": {"[1]": {"target": "T1, recombinant HLA-DQ8/gliadin peptide (human)", "T1 chain 1": "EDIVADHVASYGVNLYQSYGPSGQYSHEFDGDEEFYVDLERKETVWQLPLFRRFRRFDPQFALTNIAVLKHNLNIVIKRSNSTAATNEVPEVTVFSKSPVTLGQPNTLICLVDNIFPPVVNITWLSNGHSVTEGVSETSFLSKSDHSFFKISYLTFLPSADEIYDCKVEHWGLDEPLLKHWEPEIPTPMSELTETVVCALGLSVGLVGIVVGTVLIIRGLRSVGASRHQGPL", "T1 chain 2": "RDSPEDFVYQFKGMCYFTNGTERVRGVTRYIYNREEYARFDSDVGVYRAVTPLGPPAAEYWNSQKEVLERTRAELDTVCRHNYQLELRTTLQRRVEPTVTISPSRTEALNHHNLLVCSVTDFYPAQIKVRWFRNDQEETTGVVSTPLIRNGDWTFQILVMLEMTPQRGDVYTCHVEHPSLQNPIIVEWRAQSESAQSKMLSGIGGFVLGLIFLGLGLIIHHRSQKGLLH", "experiment": "bead-based flow cytometry: HLA-DQ8/gliadin peptide on beads, antibody titrated, blocking of SP3.4 TCR-PE binding [panel DQ8/SP3.4 TCR neutralization]", "protocol": "Streptavidin-coated yellow particles (Spherotech, SVFB-2552-6K) were incubated in blocking buffer (2% BSA in PBS) for 30 minutes with shaking at room temperature. After centrifugation and aspiration of the supernatant, 0.167 micro g/mL of soluble […] was then added as 1.2E+4 beads/micro L solution and immobilized for 60 minutes with shaking at room temperature in 96 well plates (Sigma Aldrich, Cat No. M2686). […] The final concentration of HLA-DQ8/gliadin peptide was 0.075 micro g/mL. The plates were washed with blocking buffer, and serially diluted anti-HLA-DQ2.5/8 antibodies were added and incubated for 60 minutes with shaking at room temperature. […] Data acquisition was performed on LSR Fortessa (Becton Dickinson), followed by analysis using the FlowJo software (Tree Star) and the GraphPad Prism software (GraphPad)."}, "[2]": {"target": "T1, recombinant HLA-DQ8/gliadin peptide", "experiment": "SPR Biacore T200, 37 C, pH 7.4; antibody captured by anti-human Fc, pMHC injected; 1:1 model", "protocol": "The affinity of the anti-HLA-DQ2.5/8 antibodies for binding to human HLA-DQ2.5/gliadin peptide and HLA-DQ8/gliadin peptide at pH 7.4 was determined at 37 degrees C. using the Biacore T200 instrument (GE Healthcare). Anti-human Fc (GE Healthcare) was immobilized onto all flow cells of a CM4 sensor chip using an amine coupling kit (GE Healthcare). All antibodies and analytes were prepared in ACES, pH 7.4 containing 20 mM ACES, 150 mM NaCl, 0.05% Tween 20, 0.005% NaN₃. Each antibody was captured onto the sensor surface by anti-human Fc. Antibody capture levels were aimed at 200 resonance units (RUs). A recombinant human HLA-DQ2.5/gliadin peptide was injected at […] prepared by four-fold serial dilution, followed by dissociation, whereas a recombinant human HLA-DQ8/gliadin peptide was injected at 50 to 200 nM prepared by four-fold serial dilution, followed by dissociation. The sensor surface was regenerated each cycle with 3M MgCl₂. Binding affinity was determined by processing and fitting the data to a 1:1 binding model using the Biacore T200 Evaluation software, version 2.0 (GE Healthcare). A commercially available antibody (SPV-L3) was tested as comparison."}, "[3]": {"target": "T2, cynomolgus monkey MHC-DQ allele #1 (MHC DQA1*M2-1, MHC DQB1*M2-1) on Ba/F3 cells (cynomolgus monkey)", "T2 construct": "also called Ba/F3-cynoDQ C1; cynoDQ C1", "T2 MHC II alpha": "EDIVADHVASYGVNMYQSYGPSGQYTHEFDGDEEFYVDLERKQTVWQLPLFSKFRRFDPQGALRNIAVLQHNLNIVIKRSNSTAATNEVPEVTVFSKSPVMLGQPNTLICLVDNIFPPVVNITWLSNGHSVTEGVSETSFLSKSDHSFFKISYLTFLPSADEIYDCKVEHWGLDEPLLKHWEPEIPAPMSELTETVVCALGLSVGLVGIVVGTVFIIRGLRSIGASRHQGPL", "T2 MHC II beta": "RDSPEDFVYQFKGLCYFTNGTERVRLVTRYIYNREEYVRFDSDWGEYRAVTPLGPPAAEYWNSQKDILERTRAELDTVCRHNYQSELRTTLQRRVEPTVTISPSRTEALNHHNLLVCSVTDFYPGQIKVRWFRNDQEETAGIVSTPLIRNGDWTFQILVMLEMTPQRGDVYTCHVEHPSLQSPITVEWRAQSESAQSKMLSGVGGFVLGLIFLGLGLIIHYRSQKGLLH", "experiment": "FACS on Ba/F3-cynoDQ C1 cells, PE-labelled anti-human IgG secondary [panel Ba/F3-cynoDQ C1]", "protocol": "(§1) Binding of antiHLA-DQ2.5/8 antibodies to HLA-DQ2.5-expressing Ba/F3 cells (Ba/F3-HLA-DQ2.5), Ba/F3-HLA-DQ8, Ba/F3-HLA-DR, Ba/F3-HLA-DP, Ba/F3-cynoDQ C1, Ba/F3-cynoDQ C2, and Ba/F3-cynoDQ C3 was tested.\n(§2) Anti-HLA-DQ2.5/8 antibodies were incubated with each cell line for 30 minutes at room temperature and washed with FACS buffer (2% FBS, 2 mM EDTA in PBS). Goat F(ab′)2 anti-Human IgG, Mouse ads-PE (Southern Biotech, Cat. 2043-09) was then added and incubated for 20 minutes at 4 degrees C. and washed with FACS buffer. Data acquisition was performed on an FACS Verse (Becton Dickinson), followed by analysis using the FlowJo software (Tree Star) and the GraphPad Prism software (GraphPad)."}, "[4]": {"target": "complex of the invariant chain and HLA-DQ on Raji cells (UniProt P04233 1-296)", "sequence (P04233 whole entry, change not shown, one chain of several)": "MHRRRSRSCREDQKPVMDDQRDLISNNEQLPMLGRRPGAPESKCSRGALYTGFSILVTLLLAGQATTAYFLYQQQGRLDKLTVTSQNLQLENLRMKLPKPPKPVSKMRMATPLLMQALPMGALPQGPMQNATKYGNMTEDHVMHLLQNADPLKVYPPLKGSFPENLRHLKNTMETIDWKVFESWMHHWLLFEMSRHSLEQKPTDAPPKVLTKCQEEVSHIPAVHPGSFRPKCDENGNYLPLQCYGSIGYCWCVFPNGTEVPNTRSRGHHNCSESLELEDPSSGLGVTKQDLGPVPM", "experiment": "cell-based or functional assay"}, "[5]": {"target": "T3, HLA-DQ2.5 (HLA-DQA1*0501, HLA-DQB1*0201) on Ba/F3 cells (human, UniProt P01909 24-216, limits assumed)", "T3 construct": "whole, on cells; Expressed from cDNA in mouse Ba/F3 cells; also called Ba/F3-HLA-DQ2.5", "experiment": "FACS on Ba/F3-HLA-DQ2.5 cells", "protocol": "as §1, §2"}, "[6]": {"target": "T4, HLA-DQ8 (HLA-DQA1*0301, HLA-DQB1*0302) on Ba/F3 cells (human, UniProt P01909 24-216; P01920 33-230, limits assumed)", "T4 construct": "whole, on cells; Expressed from cDNA in mouse Ba/F3 cells; also called Ba/F3-HLA-DQ8", "T4 MHC II alpha": "not shown", "T4 MHC II beta": "not shown", "experiment": "FACS on Ba/F3-HLA-DQ8 cells", "protocol": "as §1, §2"}}, "data": [{"binder": "B1", "values": [{"measurement": "IC50 (read off the curve)", "setting": "[1]", "value": "~0.1", "unit": "µg/mL"}, {"measurement": "Kd", "setting": "[2]", "value": 1.94, "unit": "nM"}, {"measurement": "koff", "setting": "[2]", "value": 0.000458, "unit": "s⁻¹"}, {"measurement": "kon", "setting": "[2]", "value": 236000, "unit": "M⁻¹ s⁻¹"}]}, {"binder": "B2", "values": [{"measurement": "IC50 (read off the curve)", "setting": "[1]", "value": "~0.2", "unit": "µg/mL"}, {"measurement": "Kd", "setting": "[2]", "value": 151, "unit": "nM"}]}, {"binder": "B3", "values": [{"measurement": "binding result", "setting": "[3]", "value": "no binding"}, {"measurement": "IC50 (read off the curve)", "setting": "[1]", "value": "~0.1", "unit": "µg/mL"}, {"measurement": "Kd", "setting": "[2]", "value": 22.6, "unit": "nM"}, {"measurement": "koff", "setting": "[2]", "value": 0.0033, "unit": "s⁻¹"}, {"measurement": "kon", "setting": "[2]", "value": 146000, "unit": "M⁻¹ s⁻¹"}]}, {"binder": "B4", "values": [{"measurement": "IC50 (read off the curve)", "setting": "[1]", "value": "~0.3", "unit": "µg/mL"}, {"measurement": "Kd", "setting": "[2]", "value": 11.3, "unit": "nM"}]}, {"binder": "B5", "values": [{"measurement": "ratio [MFI (PE/FITC) without Cytochalasin D, Dynasore]/[MFI (PE/FITC) with Cytochalasin D, Dynasore] on Raji cells (invariant chain-mediated internalization)", "setting": "[4]", "value": "~3"}]}, {"binder": "B6", "values": [{"measurement": "Kd", "setting": "[2]", "value": 3.67, "unit": "nM"}, {"measurement": "koff", "setting": "[2]", "value": 0.00137, "unit": "s⁻¹"}, {"measurement": "kon", "setting": "[2]", "value": 374000, "unit": "M⁻¹ s⁻¹"}]}, {"binder": "B7", "values": [{"measurement": "binding result", "setting": "[3]", "value": "no binding"}, {"measurement": "binding result", "setting": "[5]", "value": "binds"}, {"measurement": "binding result", "setting": "[6]", "value": "binds"}, {"measurement": "Kd", "setting": "[2]", "value": 7.28, "unit": "nM"}, {"measurement": "koff", "setting": "[2]", "value": 0.00122, "unit": "s⁻¹"}, {"measurement": "kon", "setting": "[2]", "value": 168000, "unit": "M⁻¹ s⁻¹"}]}]}
